This note sets out measurements from publication PMC6262902, “Characterization of a New Cyclohexylamine Oxidase From Acinetobacter sp. YT-02” (Frontiers in Microbiology, 2018).

The target in data set [1] is cyclohexylamine oxidase from Acinetobacter sp. YT-02 (Acinetobacter sp. YT-02). The data set can be described thus: SEC; gel filtration on Superose 6 Increase 10/300GL; 10 mM phosphate buffer, pH 7.4, 140 mM NaCl; calibrated with apoferritin (443 kDa), alcohol dehydrogenase (150 kDa), bovine albumin (66 kDa), carbonic anhydrase (29 kDa). A general note: In gel filtration, larger molecules generally elute earlier.

Substrate in the data set “purified protein”: NC1CCCCC1
The data set is described as follows: purified protein. To be noted: 50 °C, pH 7.0 sodium phosphate. Type of data set: biochemical, Acinetobacter sp. YT-02.

As a reminder, the stoichiometry N is a count of units in the complex or per binding partner. “cyclohexylamine oxidase from Acinetobacter sp. YT-02 (enzyme)” returned a stoichiometry N in data set [1] of 2.

B1: CHAOYT–02 (Acinetobacter sp. YT-02) (protein)
chain: MSVNDNRESASYDADVIVVGAGPSGSYAAKLLHDRGISVKLVEAKDRVGGRTWSSKTEAQGGPIDFGGQWIGETHVLLPELGEELGLETVSSIKPGNDIFVFNGQVTVGEEDQAPASASWTAELTRSFELLDEAGARLGWEAPWASPAVEALDGMTVAQWLDENVSSDEVRMIHEVMVNILNGANTTEVSMAYWAYFVHQGEGIESLIGTRSGAQIAWFVGGMGQVTELIADRLGDNLHLNWPVTSIEQQDSGVVVSSGDRRLTAKYVILATPPSDASRMIFDQPLPAKRAQLQARAPMGRLAKIQVRYRDAFWQEENLSGAAFVCGDLAFWVFDGSKPSDSLATIVGFIGGKHLDLWHSFTPEEREARFIDMLVTNIGEKARDTVYYHETDWTEQPWTGGAPVTFMPTGLLSSSGSALRGSAGRIHFAGTEAAPMWSGYIEGALRAGKIAATDIIARLG
notes: full-length ORF of 460 residues, no signal peptide; pET-28b 6xHis tag and vector residues kept (53,534 Da with tag); E. coli BL21 (DE3); dimer about 91 kDa; FAD enzyme
As usually defined, the Km is the concentration of substrate that gives half-maximal velocity. As a reminder, the Vmax is the rate approached at saturating substrate. One may read the kcat as the maximal rate divided by the concentration of active sites. For orientation: kcat/Km means the turnover number divided by the Michaelis constant. In the case of B1, in the data set “purified protein”, the Km amounted to 250 ± 20 µM, the Vmax came to 4300 µM/min, the kcat amounted to 523 ± 10 s⁻¹ and the kcat/Km is 2.08e+06 M⁻¹ s⁻¹.
